Experiments:
MS2 coat protein [1] = assay: apparent KD of MS2 coat protein, switch OFF state (with FMN for OFF switches, without FMN for ON switches); designed switch direction (-1 OFF switch, 1 ON switch): 1; higher = weaker reporter binding; details: FMN input: 0 or 200 uM; Eterna round: R93 (includes R88 designs)
Summary of the method: (§1)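 Designed RNA switches, transcribed on-chip from Illumina sequencing clusters, were titrated with SNAP-549-labelled MS2 coat protein from 0.7 or 1.5 nM to 3 µM in twofold steps. The solution was 100 mM Tris-HCl pH 7.5, 80 mM KCl, 4 mM MgCl2, with constant ligand or without it. Apparent KD is the median over each design's normalised cluster binding-curve fits.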

MS2 coat protein [2] = assay: apparent KD of MS2 coat protein, switch ON state; designed switch direction (-1 OFF switch, 1 ON switch): 1; higher = weaker reporter binding; details: FMN input: 0 or 200 uM; Eterna round: R93 (includes R88 designs)
Summary of the method: as §1

Row | Sequence | apparent KD of MS2 coat protein (MS2 coat protein [1]) | apparent KD of MS2 coat protein (MS2 coat protein [2])
1 | AGGAAACAUGAGGAUCACCCAUGUAUAAAAUAGGGAGGAUAUACUAAGACGAAAGUCAUAGUAGAAGGUCCAAAAA [76%, Meechl, 13] | 23.4 nM | 17.9 nM
2 | AUAAAACAUGAGGAUCACCCAUGUAGAAAUAUGGGAGGAUAUACGAGGACGAAAGUCAAAGUAGAAGGCCUAAAAG [Mat - Same State 1 - Meechl mod - D120] | 40.6 nM | 22.7 nM
3 | AUAAAACAUGAGGAUCACCCAUGUAGAAAUAUGGGAGGAUAUACUAGAUCGAAAGAUCUAGUAGAAGGCCUUUAAG [JL Mod of Eli 4] | 49.9 nM | 29.6 nM
4 | AUAAAACAUGAGGAUCACCCAUGUAGAAAUAUGGGAGGAUAUACUAGAUCGAAAGAUCUAGUAGAAGGCCUUUAUA [JL Mod of Eli 6] | 45.9 nM | 19.9 nM
5 | AUAAAACAUGAGGAUCACCCAUGUCAAGGCUAUCAAGGAUAUAGGAAGCGUAGCGGUUGACUAGAAGGUGAGAAAU [Ragexequ] | 52.4 nM | 66.9 nM
6 | AUAAAAUAAAGUCAGGAUAUCUAUAAUAAAACAUGAGGAUCACCCAUGUUAAAAAAAAGAUCAUGGGAGAAGGGACAAAAUAAAU [SS2 M 32] | 28.3 nM | 27 nM
7 | AUAAUAAGAAGCUAGGAUAUGCUAAAGUAAACAUGAGGAUCACCCAUGUAAAGAAAAAAACUCAUGUAGAAGGAGCAGAAAUAAA [moonwalk 6] | 106 nM | 99.1 nM
8 | AUACGUACGUAUGAGGAUAUCCAUAAUAAGACAUGAGGAUCACCCAUGUAAACAAAACAAUAAUGGGAGAAGGCAUACGUACGAU [SS 2 M 50] | 54.8 nM | 47.7 nM
9 | AUAUAUAUAAGGAAGGAUAUCUUAGAAAAAACAUGAGGAUCACCCAUGUAAAUAAAGAAUAAAUGGGAGAAGGUCCAUAUAUAUA [77%, More Tesla, 10] | 109 nM | 15.1 nM
10 | AUGAAUAGCAUCGAGGAUAUCCAGUCAUGAACAUGAGGAUCACCCAUGUAAGAGAGAGUAUAAUGGGAGAAGGCGAGUAAUCGAU [JR_SS002_Sub1703] | 105 nM | 40.3 nM
11 | AUUACAUAUAGUUAGGAUAUCAUAUGUAAGACAUGAGGAUCACCCAUGUCCUAAGAAUAGGUAAAUGAGAAGGAACAGUGAGUAU [JR_SS002_Sub419] | 23.9 nM | 17.1 nM
12 | CCCAAUGCAACGAAGGAUAUCCGUCAUGCUACAUGAGGAUCACCCAUGUACUGGCAGCGCAAGGCGGAGAAGGUCGGGUGCUGUG [Leusesbe] | 12.6 nM | 12 nM
13 | CCCUCGCAAUAACAGGAUAUACAUGGUCAAACAUGAGGAUCACCCAUGUGAGGAAGUUGGCGGUCGUAGAAGGGUUGUUGGCUCA [Beisvesoqu] | 166 nM | 42.8 nM
14 | CGAAAGGAGAGAGAGGAUAUCCAAAGGAAAACAUGAGGAUCACCCAUGUAGAAGGUAGGAGAUUGGGAGAAGGCUCAAGAGAGAU [salish99-ss2-147] | 34.3 nM | 32.1 nM
15 | CGAAAGGAGAGAGAGGAUAUCCAAAGGAAAACAUGAGGAUCACCCAUGUAGAAGGUAGGAGAUUGGGAGAAGGCUCAAGAGAGUA [salish99-ss2-149] | 36.3 nM | 25.7 nM
16 | CGAAAGUAUGCACAGGAUAUGUACAGGCUAACAUGAGGAUCACCCAUGUGAAAAUGGACCAUGUCGCAGAAGGGUGCCCUCCCGA [Mageor] | 40.2 nM | 22.1 nM

Row | Sequence | apparent KD of MS2 coat protein (MS2 coat protein [1]) | apparent KD of MS2 coat protein (MS2 coat protein [2])
17 | CGGAAGGAGAGAGAGGAUAUCCAAAGGAAAACAUGAGGAUCACCCAUGUAGAAGGUAGGAAAUUGGGAGAAGGCUCAAGAGACAG [salish99-ss2-125] | 55.9 nM | 25.3 nM
18 | CGGAAGGAGAGAGAGGAUAUCCAAAGGAAAACAUGAGGAUCACCCAUGUAGAAGGUAGGAAAUUGGGAGAAGGCUCAAGAGAUAG [salish99-ss2-124] | 39.1 nM | 20.6 nM
19 | CUUUCCGCGCUAUAGGAUAUGAAUGAACCUACAUGAGGAUCACCCAUGUCGAACUCGGUCCAAAAUCAGAAGGAUGGCGAGGCGC [Oratis] | 178 nM | 119 nM
20 | GAAAAACAUGAGGAUCACCCAUGUAAGAUAAACACAGGAUAUGCGAAAAUAAAUAAAGAAGCAGAAGGGUGAAGAA [Mat - Same State 1 - Tesla mod - 73] | 26.5 nM | 11.1 nM
21 | GAAAAACAUGAGGAUCACCCAUGUAGAAAUAUGGGAGGAUAUACAAAGACGAAAGUCAAAGUAGAAGGCCUAAAGA [Mat - Same State 1 - Eli mod - 34] | 91.1 nM | 15.5 nM
22 | GAAAAACAUGAGGAUCACCCAUGUGAAAACUUGGGAGGAUAUACAAAGACGAAAGUCGAAGUAGAAGGCCUAUAAG [Same State 1.4l (Mat - Mod of Eli - )] | 85.9 nM | 21.1 nM
23 | GAAAAACAUGAGGAUCACCCAUGUGAGAAUAUGGGAGGAUAUACGAAGACGAGAGUCAAAGUAGAAGGCCUAAAAG [Mat - Same State 1 - Eli mod - 30] | 82.9 nM | 27.2 nM
24 | GAAAAACAUGAGGAUCACCCAUGUGGAAAUAUGGGAGGAUAUACAAAGACGGAAGUCAAAGUAGAAGGCCUAAAAG [Mat - Same State 1 - Eli mod - D10] | 119 nM | 26.5 nM
25 | GAAAAACAUGAGGAUCACCCAUGUGUAAAUAUGGGAGGAUAUACAAAGACGUAAGUCAAAGUAGAAGGCCUAAAAG [Mat - Same State 1 - Eli mod - D12] | 95.1 nM | 29.9 nM
26 | GAAAUACAUGAGGAUCACCCAUGUUAGGUGGGUCAAGGAUAUUGAGAUAAAUAAAAAUCUCGAGAAGGUGAAUAAA [JR_SS001_Sub202] | 199 nM | 87.7 nM
27 | GACGAACAUGAGGAUCACCCAUGUAAAAACGUACAAGGAUAUGUGUGGAAACCGUACUAUACAGAAGGUGUCUGUC [SS1 - 96] | 38.6 nM | 37.3 nM
28 | GAGAGACAUGAGGAUCACCCAUGUAGGAUUAUGGGAGGAUAUACAAAGACGAGAGUCAGAGUAGAAGGCCUAGGAA [salish99-ss1-137(!)] | 74.4 nM | 24.2 nM
29 | GAGAGGAAGAGAGAGGAUAUCCAAAGGAAAACAUGAGGAUCACCCAUGUAAAAGGUAGGAAAUUGGGAGAAGGCUCAAGAGAGAG [salish99-ss2-063] | 29.6 nM | 29.1 nM
30 | GAGAUACAUGAGGAUCACCCAUGUUGAUACAUGGGAGGAUAUACAAGGUCGAAAGAUAAGGUAGAAGGCCUAAAAG [LROPPY Same State 1 - v04_deltaG=3.5] | 15.7 nM | 47.1 nM
31 | GAGGACAUAGUACAGGAUAUAUGAAUAGUCACAUGAGGAUCACCCAUGUCCAUUUAUAUGGGCACAUAGAAGGGUGGUAGUUAUC [SameState2 Malc#27] | 347 nM | 24.6 nM
32 | GAGGACAUAGUACAGGAUAUAUGAAUAGUCACAUGAGGAUCACCCAUGUGCAUUUAUAUGCGCACAUAGAAGGGUGGUAGUUAUC [SameState2 Malc#28] | 67 nM | 155 nM
